In patent publication US20050090429 (published 2005):

Tests used:
human SST-R2 [1] = target: T1, human SST-R2 (human, UniProt P30874); experiment: competition, SRIF-14 displacement
human SST-R2 [2] = target: T1, human SST-R2; experiment: competition, 125I-Tyr11-SRIF-14 radioligand

T1 sequence (P30874 whole entry): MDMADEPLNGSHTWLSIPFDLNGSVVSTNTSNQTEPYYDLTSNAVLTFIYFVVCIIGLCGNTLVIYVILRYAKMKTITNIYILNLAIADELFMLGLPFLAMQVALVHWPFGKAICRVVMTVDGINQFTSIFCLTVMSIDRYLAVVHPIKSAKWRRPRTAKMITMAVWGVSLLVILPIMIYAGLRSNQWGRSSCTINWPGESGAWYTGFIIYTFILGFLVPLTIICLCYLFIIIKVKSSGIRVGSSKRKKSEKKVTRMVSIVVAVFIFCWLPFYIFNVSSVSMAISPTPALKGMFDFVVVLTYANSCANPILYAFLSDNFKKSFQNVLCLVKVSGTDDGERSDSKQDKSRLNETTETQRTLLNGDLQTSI

B1: YS-1-52 (peptide)
chain: GFWWKTFG
modifications: not fully specified; PTR 3213 core; fluorescein amide, aminopentanoic linker; cyclic GlyS2* to GlyS2*; D-Trp; C-terminal amide
IC50 (human SST-R2 [1]): 0.009 µM

B2: YS-1-58 (peptide)
chain: FGFWWKTFG
modifications: not fully specified; PTR 3219 core; fluorescein thiourea, Gly linker; cyclic GlyS2* to GlyS2*; D-Phe1, D-Trp; C-terminal amide
IC50 (human SST-R2 [1]): 0.018 µM

B3: PTR 1007A-01 (peptide)
chain: XFWWKTFG
modifications: X = Dab; 5- and 6-carboxyfluorescein conjugate; backbone cyclic (Dab* to GlyC3*); D-Trp4; C-terminal GlyC3, amide
IC50 (human SST-R2 [2]): 0.078 µM

B4: PTR 1017A-01 (peptide)
chain: KXFWWKTFG
modifications: not fully specified; 5- and 6-carboxyfluorescein-Lys; X = GABA; backbone cyclic (GABA* to GlyC3*); D-Trp; C-terminal amide
IC50 (human SST-R2 [2]): 0.0132 µM

B5: YS-1-64 (peptide)
chain: FGFWWKTFG
modifications: not fully specified; PTR 3219 core; 5- and 6-carboxyfluorescein-betaAla conjugate; cyclic GlyS2* to GlyS2*; D-Phe1, D-Trp; C-terminal amide
IC50 (human SST-R2 [2]): 0.0039 µM

B6: YS-1-62 (peptide)
chain: FGFWWKTFG
modifications: not fully specified; PTR 3219 core; 5-(aminothionyl)fluorescein-betaAla conjugate; cyclic GlyS2* to GlyS2*; D-Phe1, D-Trp; C-terminal amide
IC50 (human SST-R2 [2]): 0.003 µM

B7: YS-1-29 (peptide)
chain: XFWWKTFG
modifications: not fully specified; PTR 3173-NH2 core; X = GABA; fluorescein amide, aminopentanoic linker; backbone cyclic; D-Trp; C-terminal amide
IC50 (human SST-R2 [1]): 0.032 µM

B8: YS-1-44 (peptide)
chain: GFWWKTFG
modifications: not fully specified; PTR 3213 core; fluorescein amide, betaAla linker; cyclic GlyS2* to GlyS2*; D-Trp; C-terminal amide
IC50 (human SST-R2 [1]): 0.019 µM

B9: YS-1-68 (peptide)
chain: FGFWWKTFG
modifications: not fully specified; PTR 3219 core; 5- and 6-carboxyfluorescein-GABA conjugate; cyclic GlyS2* to GlyS2*; D-Phe1, D-Trp; C-terminal amide
IC50 (human SST-R2 [2]): 0.0057 µM

B10: YS-1-70 (peptide)
chain: FGFWWKTFG
modifications: not fully specified; PTR 3219 core; 5-(aminothionyl)fluorescein-aminopentanoyl conjugate; cyclic GlyS2* to GlyS2*; D-Phe1, D-Trp; C-terminal amide
IC50 (human SST-R2 [2]): 0.0029 µM

B11: YS-1-48 (peptide)
chain: GFWWKTFG
modifications: not fully specified; PTR 3213 core; 5- and 6-carboxyfluorescein-GABA conjugate; cyclic GlyS2* to GlyS2*; D-Trp; C-terminal amide
IC50 (human SST-R2 [2]): 0.0054 µM

B12: YS-1-76 (peptide)
chain: FGFWWKTFG
modifications: not fully specified; PTR 3219 core; fluorescein amide, aminohexanoic linker; cyclic GlyS2* to GlyS2*; D-Phe1, D-Trp; C-terminal amide
IC50 (human SST-R2 [1]): 0.013 µM

B13: YS-1-54 (peptide)
chain: GFWWKTFG
modifications: not fully specified; PTR 3213 core; fluorescein thiourea, no linker; cyclic GlyS2* to GlyS2*; D-Trp; C-terminal amide
IC50 (human SST-R2 [1]): 0.048 µM

B14: YS-1-86 (peptide)
chain: FCFWWKTFG
modifications: not fully specified; PTR 3207 core; 5-(aminothionyl)fluorescein-GABA conjugate; cyclic Cys* to GlyS2*; D-Phe1, D-Trp; C-terminal amide
IC50 (human SST-R2 [2]): 0.0017 µM
